Numbered stars: 1 amine (or outer) side, 2 acyl side, 3 side chain; on linkers, the order of the positions; unused ones are H or OH. Bridge positions count the residues as written; N and C are the ends. Side chains are listed from the residue outwards. Ends that are not written are not given here. * marks the point of attachment. C20 diacid = O=C(O)CCCCCCCCCCCCCCCCCCC(=O)*; γGlu = O=C(O)[C@H](CCC(=O)[*:2])N[*:1]; AEEA = NCCOCCOCC(=O)O
T1: human calcitonin receptor (human, UniProt P30988 25-474)
T1 sequence (looked up): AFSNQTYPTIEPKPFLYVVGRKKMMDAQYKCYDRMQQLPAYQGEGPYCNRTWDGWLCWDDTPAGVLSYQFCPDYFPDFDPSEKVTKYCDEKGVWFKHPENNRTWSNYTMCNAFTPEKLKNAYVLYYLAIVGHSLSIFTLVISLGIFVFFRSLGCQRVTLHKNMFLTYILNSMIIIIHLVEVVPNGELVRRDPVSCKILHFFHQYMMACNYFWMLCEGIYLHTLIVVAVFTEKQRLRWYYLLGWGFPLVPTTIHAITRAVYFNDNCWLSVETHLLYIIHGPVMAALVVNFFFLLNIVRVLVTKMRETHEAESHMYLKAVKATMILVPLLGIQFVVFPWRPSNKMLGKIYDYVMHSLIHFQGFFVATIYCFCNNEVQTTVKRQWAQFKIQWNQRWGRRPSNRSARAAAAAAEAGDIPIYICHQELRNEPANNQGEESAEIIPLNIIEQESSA


These binders were tested against T1, human calcitonin receptor (assay: cell-based or functional assay).

Row | hCTR funct. EC50 [nM] | Binder
1 | 0.818 | {C20 diacid-γGlu}-GRCNTATCATQRLAHFLRHSSPNFGAIPSSTNVGSNTY-NH2 (disulfide 3-8; SMILES CC[C@H](C)[C@H](NC(=O)[C@H](C)NC(=O)CNC(=O)[C@H](Cc1ccccc1)NC(=O)[C@H](CC(N)=O)NC(=O)[C@@H]1CCCN1C(=O)[C@H](CO)NC(=O)[C@H](CO)NC(=O)[C@H](Cc1c[nH]cn1)NC(=O)[C@H](CCCNC(=N)N)NC(=O)[C@H](CC(C)C)NC(=O)[C@H](Cc1ccccc1)NC(=O)[C@H](Cc1c[nH]cn1)NC(=O)[C@H](C)NC(=O)[C@H](CC(C)C)NC(=O)[C@H](CCCNC(=N)N)NC(=O)[C@H](CCC(N)=O)NC(=O)[C@@H](NC(=O)[C@H](C)NC(=O)[C@@H]1CSSC[C@H](NC(=O)[C@H](CCCNC(=N)N)NC(=O)CNC(=O)CC[C@H](NC(=O)CCCCCCCCCCCCCCCCCCC(=O)O)C(=O)O)C(=O)N[C@@H](CC(N)=O)C(=O)N[C@@H]([C@@H](C)O)C(=O)N[C@@H](C)C(=O)N[C@@H]([C@@H](C)O)C(=O)N1)[C@@H](C)O)C(=O)N1CCC[C@H]1C(=O)N[C@@H](CO)C(=O)N[C@@H](CO)C(=O)N[C@H](C(=O)N[C@@H](CC(N)=O)C(=O)N[C@H](C(=O)NCC(=O)N[C@@H](CO)C(=O)N[C@@H](CC(N)=O)C(=O)N[C@H](C(=O)N[C@@H](Cc1ccc(O)cc1)C(N)=O)[C@@H](C)O)C(C)C)[C@@H](C)O, also called compound 99)
2 | 2.38 | K([γGlu-γGlu-C20 diacid])CNTATCATQRLAHFLRHSSPNFGAIPSSTNVGSNTY-NH2 (disulfide 2-7; N-terminus assumed; SMILES CC[C@H](C)[C@H](NC(=O)[C@H](C)NC(=O)CNC(=O)[C@H](Cc1ccccc1)NC(=O)[C@H](CC(N)=O)NC(=O)[C@@H]1CCCN1C(=O)[C@H](CO)NC(=O)[C@H](CO)NC(=O)[C@H](Cc1c[nH]cn1)NC(=O)[C@H](CCCNC(=N)N)NC(=O)[C@H](CC(C)C)NC(=O)[C@H](Cc1ccccc1)NC(=O)[C@H](Cc1c[nH]cn1)NC(=O)[C@H](C)NC(=O)[C@H](CC(C)C)NC(=O)[C@H](CCCNC(=N)N)NC(=O)[C@H](CCC(N)=O)NC(=O)[C@@H](NC(=O)[C@H](C)NC(=O)[C@@H]1CSSC[C@H](NC(=O)[C@@H](N)CCCCNC(=O)CC[C@H](NC(=O)CC[C@H](NC(=O)CCCCCCCCCCCCCCCCCCC(=O)O)C(=O)O)C(=O)O)C(=O)N[C@@H](CC(N)=O)C(=O)N[C@@H]([C@@H](C)O)C(=O)N[C@@H](C)C(=O)N[C@@H]([C@@H](C)O)C(=O)N1)[C@@H](C)O)C(=O)N1CCC[C@H]1C(=O)N[C@@H](CO)C(=O)N[C@@H](CO)C(=O)N[C@H](C(=O)N[C@@H](CC(N)=O)C(=O)N[C@H](C(=O)NCC(=O)N[C@@H](CO)C(=O)N[C@@H](CC(N)=O)C(=O)N[C@H](C(=O)N[C@@H](Cc1ccc(O)cc1)C(N)=O)[C@@H](C)O)C(C)C)[C@@H](C)O, also called compound 92)
3 | 0.715 | K([γGlu-C20 diacid])CNTATCATQRLAHFLRHSSPNFGAIPSSTNVGSNTY-NH2 (disulfide 2-7; N-terminus assumed; SMILES CC[C@H](C)[C@H](NC(=O)[C@H](C)NC(=O)CNC(=O)[C@H](Cc1ccccc1)NC(=O)[C@H](CC(N)=O)NC(=O)[C@@H]1CCCN1C(=O)[C@H](CO)NC(=O)[C@H](CO)NC(=O)[C@H](Cc1c[nH]cn1)NC(=O)[C@H](CCCNC(=N)N)NC(=O)[C@H](CC(C)C)NC(=O)[C@H](Cc1ccccc1)NC(=O)[C@H](Cc1c[nH]cn1)NC(=O)[C@H](C)NC(=O)[C@H](CC(C)C)NC(=O)[C@H](CCCNC(=N)N)NC(=O)[C@H](CCC(N)=O)NC(=O)[C@@H](NC(=O)[C@H](C)NC(=O)[C@@H]1CSSC[C@H](NC(=O)[C@@H](N)CCCCNC(=O)CC[C@H](NC(=O)CCCCCCCCCCCCCCCCCCC(=O)O)C(=O)O)C(=O)N[C@@H](CC(N)=O)C(=O)N[C@@H]([C@@H](C)O)C(=O)N[C@@H](C)C(=O)N[C@@H]([C@@H](C)O)C(=O)N1)[C@@H](C)O)C(=O)N1CCC[C@H]1C(=O)N[C@@H](CO)C(=O)N[C@@H](CO)C(=O)N[C@H](C(=O)N[C@@H](CC(N)=O)C(=O)N[C@H](C(=O)NCC(=O)N[C@@H](CO)C(=O)N[C@@H](CC(N)=O)C(=O)N[C@H](C(=O)N[C@@H](Cc1ccc(O)cc1)C(N)=O)[C@@H](C)O)C(C)C)[C@@H](C)O, also called compound 70) [N^ε1-[(4S)-4-carboxy-4-(19-carboxynonadecanoylamino)butanoyl]-[His14,Arg17,Pro21,Pro27]-h-amylin]
4 | 0.236 | K([AEEA-C20 diacid])CNTATCATQRLAHFLRHSSPNFGAIPSSTNVGSNTY-NH2 (disulfide 2-7; N-terminus assumed; SMILES CC[C@H](C)[C@H](NC(=O)[C@H](C)NC(=O)CNC(=O)[C@H](Cc1ccccc1)NC(=O)[C@H](CC(N)=O)NC(=O)[C@@H]1CCCN1C(=O)[C@H](CO)NC(=O)[C@H](CO)NC(=O)[C@H](Cc1c[nH]cn1)NC(=O)[C@H](CCCNC(=N)N)NC(=O)[C@H](CC(C)C)NC(=O)[C@H](Cc1ccccc1)NC(=O)[C@H](Cc1c[nH]cn1)NC(=O)[C@H](C)NC(=O)[C@H](CC(C)C)NC(=O)[C@H](CCCNC(=N)N)NC(=O)[C@H](CCC(N)=O)NC(=O)[C@@H](NC(=O)[C@H](C)NC(=O)[C@@H]1CSSC[C@H](NC(=O)[C@@H](N)CCCCNC(=O)COCCOCCNC(=O)CCCCCCCCCCCCCCCCCCC(=O)O)C(=O)N[C@@H](CC(N)=O)C(=O)N[C@@H]([C@@H](C)O)C(=O)N[C@@H](C)C(=O)N[C@@H]([C@@H](C)O)C(=O)N1)[C@@H](C)O)C(=O)N1CCC[C@H]1C(=O)N[C@@H](CO)C(=O)N[C@@H](CO)C(=O)N[C@H](C(=O)N[C@@H](CC(N)=O)C(=O)N[C@H](C(=O)NCC(=O)N[C@@H](CO)C(=O)N[C@@H](CC(N)=O)C(=O)N[C@H](C(=O)N[C@@H](Cc1ccc(O)cc1)C(N)=O)[C@@H](C)O)C(C)C)[C@@H](C)O, also called compound 90) [N^ε1-[2-[2-[2-(19-carboxynonadecanoylamino)ethoxy]ethoxy]acetyl]-[His14,Arg17,Pro21,Pro27]-h-amylin]
5 | 11.2 | K([γGlu-γGlu-C20 diacid])CNTATCATQRLAEFLRHSSPNFGAIPSSTNVGSRTY-NH2 (disulfide 2-7; N-terminus assumed; SMILES CC[C@H](C)[C@H](NC(=O)[C@H](C)NC(=O)CNC(=O)[C@H](Cc1ccccc1)NC(=O)[C@H](CC(N)=O)NC(=O)[C@@H]1CCCN1C(=O)[C@H](CO)NC(=O)[C@H](CO)NC(=O)[C@H](Cc1c[nH]cn1)NC(=O)[C@H](CCCNC(=N)N)NC(=O)[C@H](CC(C)C)NC(=O)[C@H](Cc1ccccc1)NC(=O)[C@H](CCC(=O)O)NC(=O)[C@H](C)NC(=O)[C@H](CC(C)C)NC(=O)[C@H](CCCNC(=N)N)NC(=O)[C@H](CCC(N)=O)NC(=O)[C@@H](NC(=O)[C@H](C)NC(=O)[C@@H]1CSSC[C@H](NC(=O)[C@@H](N)CCCCNC(=O)CC[C@H](NC(=O)CC[C@H](NC(=O)CCCCCCCCCCCCCCCCCCC(=O)O)C(=O)O)C(=O)O)C(=O)N[C@@H](CC(N)=O)C(=O)N[C@@H]([C@@H](C)O)C(=O)N[C@@H](C)C(=O)N[C@@H]([C@@H](C)O)C(=O)N1)[C@@H](C)O)C(=O)N1CCC[C@H]1C(=O)N[C@@H](CO)C(=O)N[C@@H](CO)C(=O)N[C@H](C(=O)N[C@@H](CC(N)=O)C(=O)N[C@H](C(=O)NCC(=O)N[C@@H](CO)C(=O)N[C@@H](CCCNC(=N)N)C(=O)N[C@H](C(=O)N[C@@H](Cc1ccc(O)cc1)C(N)=O)[C@@H](C)O)C(C)C)[C@@H](C)O, also called compound 89)
6 | 0.354 | K([γGlu-C20 diacid])CNTATCATQRLAHFLRHSSPNFGAIPSSTNVGPNTY-NH2 (disulfide 2-7; N-terminus assumed; SMILES CC[C@H](C)[C@H](NC(=O)[C@H](C)NC(=O)CNC(=O)[C@H](Cc1ccccc1)NC(=O)[C@H](CC(N)=O)NC(=O)[C@@H]1CCCN1C(=O)[C@H](CO)NC(=O)[C@H](CO)NC(=O)[C@H](Cc1c[nH]cn1)NC(=O)[C@H](CCCNC(=N)N)NC(=O)[C@H](CC(C)C)NC(=O)[C@H](Cc1ccccc1)NC(=O)[C@H](Cc1c[nH]cn1)NC(=O)[C@H](C)NC(=O)[C@H](CC(C)C)NC(=O)[C@H](CCCNC(=N)N)NC(=O)[C@H](CCC(N)=O)NC(=O)[C@@H](NC(=O)[C@H](C)NC(=O)[C@@H]1CSSC[C@H](NC(=O)[C@@H](N)CCCCNC(=O)CC[C@H](NC(=O)CCCCCCCCCCCCCCCCCCC(=O)O)C(=O)O)C(=O)N[C@@H](CC(N)=O)C(=O)N[C@@H]([C@@H](C)O)C(=O)N[C@@H](C)C(=O)N[C@@H]([C@@H](C)O)C(=O)N1)[C@@H](C)O)C(=O)N1CCC[C@H]1C(=O)N[C@@H](CO)C(=O)N[C@@H](CO)C(=O)N[C@H](C(=O)N[C@@H](CC(N)=O)C(=O)N[C@H](C(=O)NCC(=O)N1CCC[C@H]1C(=O)N[C@@H](CC(N)=O)C(=O)N[C@H](C(=O)N[C@@H](Cc1ccc(O)cc1)C(N)=O)[C@@H](C)O)C(C)C)[C@@H](C)O, also called compound 67)
